B1: Ab0396: IgG4 PE; 16H7 VL (Y48del, D95A, W90F); 16H7 VH (M34V, H52S, F54W, I83T, D109E) (antibody)
VH: QVTLKESGPVLVKPTETLTLTCTVSGFSLNNARVGVSWIRQPPGKALEWLASIWSNDEKSYSTSLKSRLTISKDTSKSQVVLTMTNMDPVDTATYYCARSVVTGGYYYEGMDVWGQGTTVTVSS
light: SYVLTQPPSVSVAPGQTARITCGGNNIGSESVHWYQQKPGQAPVLVVDDSDRPSGIPERFSGSNSGNTATLTISRVEAGDEADYYCQVFDGNSAHVVFGGGTKLTVLGQPKANPTVTLFPPSSEELQANKATLVCLISDFYPGAVTVAWKADGSPVKAGVETTKPSKQSNNKYAASSYLSLTPEQWKSHRSYSCQVTHEGSTVEKTVAPTECS
B2: Ab0403: IgG4 PE; 16H7 VL (Y48del, D95A, W90F, S1C, S94C); 16H7 VH (M34V, H52W, I83T, D109E) (antibody)
VH: QVTLKESGPVLVKPTETLTLTCTVSGFSLNNARVGVSWIRQPPGKALEWLAWIFSNDEKSYSTSLKSRLTISKDTSKSQVVLTMTNMDPVDTATYYCARSVVTGGYYYEGMDVWGQGTTVTVSS
light: CYVLTQPPSVSVAPGQTARITCGGNNIGSESVHWYQQKPGQAPVLVVDDSDRPSGIPERFSGSNSGNTATLTISRVEAGDEADYYCQVFDGNCAHVVFGGGTKLTVLGQPKANPTVTLFPPSSEELQANKATLVCLISDFYPGAVTVAWKADGSPVKAGVETTKPSKQSNNKYAASSYLSLTPEQWKSHRSYSCQVTHEGSTVEKTVAPTECS
B3: Ab0401: IgG4 PE; 16H7 VL (Y48del, D95A, W90F); 16H7 VH (M34V, H52W, I83T, D109E) (antibody)
VH: QVTLKESGPVLVKPTETLTLTCTVSGFSLNNARVGVSWIRQPPGKALEWLAWIFSNDEKSYSTSLKSRLTISKDTSKSQVVLTMTNMDPVDTATYYCARSVVTGGYYYEGMDVWGQGTTVTVSS
light: SYVLTQPPSVSVAPGQTARITCGGNNIGSESVHWYQQKPGQAPVLVVDDSDRPSGIPERFSGSNSGNTATLTISRVEAGDEADYYCQVFDGNSAHVVFGGGTKLTVLGQPKANPTVTLFPPSSEELQANKATLVCLISDFYPGAVTVAWKADGSPVKAGVETTKPSKQSNNKYAASSYLSLTPEQWKSHRSYSCQVTHEGSTVEKTVAPTECS
B4: Ab0400: IgG4 PE; 16H7 VL (Y48del, D95A, W90F, S94C, H96C); 16H7 VH (M34V, H52S, F54W, I83T, D109E) (antibody)
VH: QVTLKESGPVLVKPTETLTLTCTVSGFSLNNARVGVSWIRQPPGKALEWLASIWSNDEKSYSTSLKSRLTISKDTSKSQVVLTMTNMDPVDTATYYCARSVVTGGYYYEGMDVWGQGTTVTVSS
light: SYVLTQPPSVSVAPGQTARITCGGNNIGSESVHWYQQKPGQAPVLVVDDSDRPSGIPERFSGSNSGNTATLTISRVEAGDEADYYCQVFDGNCACVVFGGGTKLTVLGQPKANPTVTLFPPSSEELQANKATLVCLISDFYPGAVTVAWKADGSPVKAGVETTKPSKQSNNKYAASSYLSLTPEQWKSHRSYSCQVTHEGSTVEKTVAPTECS
B5: Ab0397: IgG4 PE; 16H7 VL (Y48del, D95A, W90F, S1C, S94C); 16H7 VH (M34V, F54W, I83T, D109E) (antibody)
VH: QVTLKESGPVLVKPTETLTLTCTVSGFSLNNARVGVSWIRQPPGKALEWLAHIWSNDEKSYSTSLKSRLTISKDTSKSQVVLTMTNMDPVDTATYYCARSVVTGGYYYEGMDVWGQGTTVTVSS
light: CYVLTQPPSVSVAPGQTARITCGGNNIGSESVHWYQQKPGQAPVLVVDDSDRPSGIPERFSGSNSGNTATLTISRVEAGDEADYYCQVFDGNCAHVVFGGGTKLTVLGQPKANPTVTLFPPSSEELQANKATLVCLISDFYPGAVTVAWKADGSPVKAGVETTKPSKQSNNKYAASSYLSLTPEQWKSHRSYSCQVTHEGSTVEKTVAPTECS
B6: Ab0404: IgG4 PE; 16H7 VL (Y48del, D95T, W90F); 16H7 VH (M34V, F54W, I83T, D109E) (antibody)
VH: QVTLKESGPVLVKPTETLTLTCTVSGFSLNNARVGVSWIRQPPGKALEWLAHIWSNDEKSYSTSLKSRLTISKDTSKSQVVLTMTNMDPVDTATYYCARSVVTGGYYYEGMDVWGQGTTVTVSS
light: SYVLTQPPSVSVAPGQTARITCGGNNIGSESVHWYQQKPGQAPVLVVDDSDRPSGIPERFSGSNSGNTATLTISRVEAGDEADYYCQVFDGNSTHVVFGGGTKLTVLGQPKANPTVTLFPPSSEELQANKATLVCLISDFYPGAVTVAWKADGSPVKAGVETTKPSKQSNNKYAASSYLSLTPEQWKSHRSYSCQVTHEGSTVEKTVAPTECS
B7: Ab0398: IgG4 PE; 16H7 VL (Y48del, D95A, W90F, S1C, S94C); 16H7 VH (M34V, H52S, F54W, I83T, D109E) (antibody)
VH: QVTLKESGPVLVKPTETLTLTCTVSGFSLNNARVGVSWIRQPPGKALEWLASIWSNDEKSYSTSLKSRLTISKDTSKSQVVLTMTNMDPVDTATYYCARSVVTGGYYYEGMDVWGQGTTVTVSS
light: CYVLTQPPSVSVAPGQTARITCGGNNIGSESVHWYQQKPGQAPVLVVDDSDRPSGIPERFSGSNSGNTATLTISRVEAGDEADYYCQVFDGNCAHVVFGGGTKLTVLGQPKANPTVTLFPPSSEELQANKATLVCLISDFYPGAVTVAWKADGSPVKAGVETTKPSKQSNNKYAASSYLSLTPEQWKSHRSYSCQVTHEGSTVEKTVAPTECS
B8: Ab0402: IgG4 PE; 16H7 VL (Y48del, D95A, W90F, S94C, H96C); 16H7 VH (M34V, H52W, I83T, D109E) (antibody)
VH: QVTLKESGPVLVKPTETLTLTCTVSGFSLNNARVGVSWIRQPPGKALEWLAWIFSNDEKSYSTSLKSRLTISKDTSKSQVVLTMTNMDPVDTATYYCARSVVTGGYYYEGMDVWGQGTTVTVSS
light: SYVLTQPPSVSVAPGQTARITCGGNNIGSESVHWYQQKPGQAPVLVVDDSDRPSGIPERFSGSNSGNTATLTISRVEAGDEADYYCQVFDGNCACVVFGGGTKLTVLGQPKANPTVTLFPPSSEELQANKATLVCLISDFYPGAVTVAWKADGSPVKAGVETTKPSKQSNNKYAASSYLSLTPEQWKSHRSYSCQVTHEGSTVEKTVAPTECS
B9: Ab0399: IgG4 PE; 16H7 VL (Y48del, D95A, W90F, S94C, H96C); 16H7 VH (M34V, F54W, I83T, D109E) (antibody)
VH: QVTLKESGPVLVKPTETLTLTCTVSGFSLNNARVGVSWIRQPPGKALEWLAHIWSNDEKSYSTSLKSRLTISKDTSKSQVVLTMTNMDPVDTATYYCARSVVTGGYYYEGMDVWGQGTTVTVSS
light: SYVLTQPPSVSVAPGQTARITCGGNNIGSESVHWYQQKPGQAPVLVVDDSDRPSGIPERFSGSNSGNTATLTISRVEAGDEADYYCQVFDGNCACVVFGGGTKLTVLGQPKANPTVTLFPPSSEELQANKATLVCLISDFYPGAVTVAWKADGSPVKAGVETTKPSKQSNNKYAASSYLSLTPEQWKSHRSYSCQVTHEGSTVEKTVAPTECS
B10: Ab0405: IgG4 PE; 16H7 VL (Y48del, D95T, W90F); 16H7 VH (M34V, H52S, F54W, I83T, D109E) (antibody)
VH: QVTLKESGPVLVKPTETLTLTCTVSGFSLNNARVGVSWIRQPPGKALEWLASIWSNDEKSYSTSLKSRLTISKDTSKSQVVLTMTNMDPVDTATYYCARSVVTGGYYYEGMDVWGQGTTVTVSS
light: SYVLTQPPSVSVAPGQTARITCGGNNIGSESVHWYQQKPGQAPVLVVDDSDRPSGIPERFSGSNSGNTATLTISRVEAGDEADYYCQVFDGNSTHVVFGGGTKLTVLGQPKANPTVTLFPPSSEELQANKATLVCLISDFYPGAVTVAWKADGSPVKAGVETTKPSKQSNNKYAASSYLSLTPEQWKSHRSYSCQVTHEGSTVEKTVAPTECS

biological target: T1, human beta-Klotho (Homo sapiens, UniProt Q86Z14); test: SPR off-rate screening of antibody mutants (human beta-Klotho captured by anti-His antibody); type: binding; conditions: mean, n=3
T1 sequence (Q86Z14 1-1044): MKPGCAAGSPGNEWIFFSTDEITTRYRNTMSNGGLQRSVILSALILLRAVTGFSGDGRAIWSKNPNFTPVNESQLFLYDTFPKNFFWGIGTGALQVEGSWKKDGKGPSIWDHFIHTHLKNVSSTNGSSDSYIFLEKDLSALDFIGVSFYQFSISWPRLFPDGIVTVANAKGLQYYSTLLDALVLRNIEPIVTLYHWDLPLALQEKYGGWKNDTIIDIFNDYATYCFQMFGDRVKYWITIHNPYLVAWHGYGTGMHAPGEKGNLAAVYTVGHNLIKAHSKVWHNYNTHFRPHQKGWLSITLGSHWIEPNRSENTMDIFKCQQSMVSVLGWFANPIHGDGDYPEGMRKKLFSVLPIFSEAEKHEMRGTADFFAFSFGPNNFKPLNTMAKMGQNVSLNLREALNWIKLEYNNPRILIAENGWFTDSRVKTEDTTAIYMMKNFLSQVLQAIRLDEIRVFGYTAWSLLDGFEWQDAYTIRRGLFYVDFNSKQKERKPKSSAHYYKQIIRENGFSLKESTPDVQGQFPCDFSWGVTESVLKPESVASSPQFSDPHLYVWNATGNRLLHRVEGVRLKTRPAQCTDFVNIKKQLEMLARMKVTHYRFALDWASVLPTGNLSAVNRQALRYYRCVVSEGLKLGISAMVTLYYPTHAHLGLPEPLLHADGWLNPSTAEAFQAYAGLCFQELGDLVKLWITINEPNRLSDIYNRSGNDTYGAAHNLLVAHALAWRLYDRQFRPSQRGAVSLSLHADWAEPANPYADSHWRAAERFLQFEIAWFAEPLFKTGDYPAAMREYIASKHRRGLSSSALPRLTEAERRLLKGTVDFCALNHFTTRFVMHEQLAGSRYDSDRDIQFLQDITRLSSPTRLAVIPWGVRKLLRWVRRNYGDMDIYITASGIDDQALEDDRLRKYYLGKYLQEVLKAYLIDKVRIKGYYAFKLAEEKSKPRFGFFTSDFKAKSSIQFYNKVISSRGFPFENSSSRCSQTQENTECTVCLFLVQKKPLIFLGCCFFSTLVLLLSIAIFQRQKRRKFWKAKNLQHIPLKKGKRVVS
Description: Screening of antibody mutants for binding to human beta-Klotho was determined in a different SPR assay set up. Human beta-Klotho was affinity captured by an anti-His antibody (from His capture kit, GE Healthcare) that was immobilized to a series S CM5 chip (GE Healthcare) by amine reactive coupling as described above. The antibody samples were used as analytes at 50 nmol/L concentration. Association time was 240 sec and dissociation time was 300 sec. Chip surfaces were regenerated using the regeneration solution supplied with the His capture kit. The off-rates (kd) were determined using single exponential fitting in the Biacore 8K Evaluation Software version 1.1.1.7442 (GE Healthcare).

Koff human KLB, no binding:
B1, B2, B3, B4, B5, B6, B7, B8, B9, B10
